In paper PMC7117543 (Biochemical and Biophysical Research Communications, 2008):

Biological target: T1, staphylococcal enterotoxin B (SEB) (Staphylococcus aureus, UniProt P01552 28-266)
T1 sequence: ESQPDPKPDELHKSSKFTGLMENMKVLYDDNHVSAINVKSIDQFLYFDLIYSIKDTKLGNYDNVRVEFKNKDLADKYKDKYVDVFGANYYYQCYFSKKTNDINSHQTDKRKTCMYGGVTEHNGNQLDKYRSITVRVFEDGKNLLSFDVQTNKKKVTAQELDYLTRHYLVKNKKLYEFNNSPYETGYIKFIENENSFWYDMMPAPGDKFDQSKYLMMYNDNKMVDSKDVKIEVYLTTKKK
Test: SPR

B1: phage clone 9 (M13 phage displaying QHPQINQTLYRM) (peptide)
peptide: QHPQINQTLYRM
B1: binds.
